From US20260144239A1, “Immune Cell-Engrafted Non-Human Animals and Non-Human Animal Models” (LAPIX Therapeutics, Inc., priority 2022, published 2026)

Experiments:
humans = conditions: in vivo; cited from earlier work
C57B/6 control mice = assay: Immunogenicity in C57B/6 control mice, antibody titers by ELISA; assay type: in vivo, mouse
Description: (§1) Three healthy human donors were used to generate three engrafted mice designated HD1, HD2 and HD3. On Day 29 and Day 36, HD1, HD2 and HD3 were administered FVIII. The same amounts of antigen were administered to three C57B/6 control mice on the same date. Two weeks later (on Day 43), blood from each mouse was collected. Titers of mouse anti-FVIII antibodies, human anti-FVIII antibodies, mouse anti-GAA antibodies and human anti-GAA antibodies were measured using ELISA (FIGS. 8A-8B).
as §1, with “GAA.” for “FVIII.”, “anti-GAA” for “anti-FVIII”, “anti-FVIII” for “anti-GAA”, “8C-8D).” for “8A-8B).”
(§2) Healthy human donors were used to generate eight engrafted mice. […] The same amount of antigen was administered to three C57B/6 control mice on the same date. Two weeks later (on Day 43), blood from each mouse was collected.
(§3) Healthy human donors were used to generate 11 engrafted mice. […] The same amount of antigen was administered to three C57B/6 control mice on the same date. Two weeks later (on Day 43), blood from each mouse was collected.

engrafted mice [1] = assay: Human CD20 on B cells of engrafted mice that developed antibodies (flow cytometry); assay type: in vivo, mouse; conditions: CD20+/CD19+ cells (FIGS. 9A-9C)
Description: Presence of human CD20 was detected on B cells of mice that developed antibodies to different biologics. CD20 is expressed on activated, antibody-producing B cells.

engrafted mice [2] = assay: Immunogenicity in engrafted mice (NRGS mice with human immune system), antibody titers by ELISA; assay type: in vivo, mouse
Description: as §1
as §1, with “GAA.” for “FVIII.”, “anti-GAA” for “anti-FVIII”, “anti-FVIII” for “anti-GAA”, “8C-8D).” for “8A-8B).”
as §2, §3

For “GAA: biologic antigen administered to engrafted and C57B/6 mice; abbreviation not spelled out in the text”, the “clinically reported immunogenicity rate in humans” value (humans) is given as 89-100%, the “mouse antibody titer to the antigen not administered (anti-FVIII after GAA, anti-GAA after FVIII)” value (C57B/6 control mice; C57B/6 control mice) is given as “none” and the “human antibody titer to the antigen not administered (anti-FVIII after GAA, anti-GAA after FVIII)” value (C57B/6 control mice; C57B/6 control mice, specificity control of titer assay) is given as “None”. The “percent of C57B/6 mice that developed mouse antibodies to the administered antigen” value (C57B/6 control mice; six (FVIII), 5 (GAA), three (IFN-β), three (AAV9) C57B/6 mice) was 100%, the “percent of C57B/6 mice that developed mouse antibodies to the administered antigen” value (C57B/6 control mice; three C57B/6 mice, first experiment (FIG. 8B, 8D)) was 100% and the “CD20-expressing B cells after antigen exposure” value (engrafted mice [1]) was “had CD20-expressing B cells”. The “percent of engrafted mice that developed human antibodies to the administered antigen” value (engrafted mice [2]; 12 (FVIII), 14 (GAA), eight (IFN-β), 11 (AAV9) engrafted mice, antigen Day 29 and Day 36, blood Day 43, ELISA) was 100%, the “engrafted mice that developed mouse antibodies to the administered antigen” value (engrafted mice [2]; antigen Day 29 and Day 36, blood Day 43, ELISA) was “none” and the “mouse antibody titer to the antigen not administered (anti-FVIII after GAA, anti-GAA after FVIII)” value (engrafted mice [2]; engrafted mice) was “none”. The “human antibody titer to the antigen not administered (anti-FVIII after GAA, anti-GAA after FVIII)” value (engrafted mice [2]; engrafted mice, specificity control of titer assay) was “None”, the “engrafted mice that developed human antibodies to the administered antigen (number of mice)” value (engrafted mice [2]; three engrafted mice (HD1, HD2, HD3), antigen on Day 29 and Day 36, blood on Day 43, ELISA) was “all three” and the “observed immunogenicity rate in the engrafted mice” value (engrafted mice [2]; three engrafted mice, human antibodies to administered antigen, antigen Day 29 and Day 36, blood Day 43) was “about 100%”.
